Columns and labels:
PRC2 complex = experiment: Co-immunoprecipitation with PRC2 complex (EZH2) in transfected HEK293T cells; type: binding; settings: anti-FLAG co-IP, HEK293T extracts; EZH2 as PRC2 marker
Experimental: (§1) HEK293T cells were transfected with vectors encoding FLAG-BCL11B ([54]), FLAG-BCL11B p.R3S or Myc-SIRT1 using the calcium phosphate method. Transfected cells were harvested in ice-cold phosphate-buffered saline (PBS) 48 h after transfection. Cell suspensions were centrifuged at 2000g for 5 min, followed by lysis under native conditions in buffer containing 20 mM HEPES, pH 7.4, 250 mM NaCl, 2 mM EDTA, 10% glycerol, 0.5% NP-40, 0.1 mM PMSF, 1 μg/mL pepstatin A, 5 μg/mL leupeptin, 10 μM E64, 25 mM NaF, 5 mM […] and 10 mMN-ethylmaleimide. Cells were incubated on ice for 30 min with vortexing every 5 min, followed by sonication on ice to complete lysis and shear DNA. The lysate was cleared by centrifugation, and BCL11B was immunoprecipitated from native extracts with anti-FLAG antibody (Sigma F4042), as previously described ([54]). […] Fluorescent signal was recorded on an Odyssey dual-channel near-infrared imager (LI-COR) and analysed with manufacturer-supplied software (Image Studio, version 2.1).

HEK293T cells = experiment: Immunocytochemistry (expression and nuclear localization) in HEK293T cells; type: cell-based; settings: 48 h after transfection, anti-BCL11B and DAPI
Experimental: HEK293T cells were grown on 0.1% gelatin-coated glass coverslips in 24-well plates seeded at 25 000 cells/well for 24 h prior to transfection with vectors encoding FLAG-BCL11B or FLAG-BCL11B p.R3S. Forty-eight hours after transfection, cells were washed twice with PBS, fixed in 4% paraformaldehyde in PBS for 10 min at room temperature, permeabilized with 0.3% Triton X-100/PBS for 10 min and washed twice with 0.1% Tween/PBS. The fixed and permeabilized cells were then prepared for immunocytochemistry by blocking for 1 h in 10% foetal bovine serum (FBS) in PBS, incubating for 4 h with rat anti-BCL11B monoclonal antibody (Abcam ab18465, 0.25 μg/ml) in 10% FBS/PBS, then incubating for 1.5 h with an anti-rat Cy3-conjugated secondary antibody (Jackson ImmunoResearch Laboratories, 1:500 dilution), followed by a final incubation in 10 μg/ml DAPI in PBS for 10 min. Cells were washed twice with 0.1% Tween/PBS between each immunocytochemistry step, and all incubations were conducted at room temperature. Cells were then washed twice with deionized water, followed by step-wise dehydration with 70% ethanol, 100% ethanol and xylene. Coverslips were then mounted on glass slides with DPX (VWR), dried overnight and stored at 4°C in the dark. Fluoromicrographs were obtained using a Zeiss microscope with appropriate filters and a 63× oil-immersion objective. […]

SIRT1 = experiment: Co-immunoprecipitation with SIRT1 in transfected HEK293T cells; type: binding; settings: anti-FLAG co-IP, HEK293T extracts; Myc-SIRT1
Experimental: as §1

NuRD complex = experiment: Co-immunoprecipitation with NuRD complex (MTA2, HDAC2) in transfected HEK293T cells; type: binding; settings: anti-FLAG co-IP, HEK293T extracts; MTA2 and HDAC2 as NuRD markers
Experimental: as §1

| Molecule | interaction with PRC2 complex (PRC2 complex) | expression and nuclear localization (HEK293T cells) | interaction with SIRT1 (SIRT1) | interaction with NuRD complex (NuRD complex) |
| --- | --- | --- | --- | --- |
| BCL11B: FLAG-BCL11B, wild-type protein expressed in transfected HEK293T cells (protein, left off: FLAG, end not stated, kept, FLAG-BCL11B, wild-type protein expressed in transfected HEK293T cells) MSRRKQGNPQHLSQRELITPEADHVEAAILEEDEGLEIEEPSGLGLMVGGPDPDLLTCGQCQMNFPLGDILVFIEHKRKQCGGSLGACYDKALDKDSPPPSSRSELRKVSEPVEIGIQVTPDEDDHLLSPTKGICPKQENIAGPCRPAQLPAVAPIAASSHPHSSVITSPLRALGALPPCLPLPCCSARPVSGDGTQGEGQTEAPFGCQCQLSGKDEPSSYICTTCKQPFNSAWFLLQHAQNTHGFRIYLEPGPASSSLTPRLTIPPPLGPEAVAQSPLMNFLGDSNPFNLLRMTGPILRDHPGFGEGRLPGTPPLFSPPPRHHLDPHRLSAEEMGLVAQHPSAFDRVMRLNPMAIDSPAMDFSRRLRELAGNSSTPPPVSPGRGNPMHRLLNPFQPSPKSPFLSTPPLPPMPPGGTPPPQPPAKSKSCEFCGKTFKFQSNLIVHRRSHTGEKPYKCQLCDHACSQASKLKRHMKTHMHKAGSLAGRSDDGLSAASSPEPGTSELAGEGLKAADGDFRHHESDPSLGHEPEEEDEEEEEEEEELLLENESRPESSFSMDSELSRNRENGGGGVPGVPGAGGGAAKALADEKALVLGKVMENVGLGALPQYGELLADKQKRGAFLKRAAGGGDAGDDDDAGGCGDAGAGGAVNGRGGGFAPGTEPFPGLFPRKPAPLPSPGLNSAAKRIKVEKDLELPPAALIPSENVYSQWLVGYAASRHFMKDPFLGFTDARQSPFATSSEHSSENGSLRFSTPPGDLLDGGLSGRSGTASGGSTPHLGGPGPGRPSSKEGRRSDTCEYCGKVFKNCSNLTVHRRSHTGERPYKCELCNYACAQSSKLTRHMKTHGQIGKEVYRCDICQMPFSVYSTLEKHMKKWHGEHLLTNDVKIEQAERS | demonstrated herein |  |  |  |
| BCL11B p.R3S: FLAG-BCL11B p.R3S, patient-derived mutant protein expressed in transfected HEK293T cells (protein, UniProt Q9C0K0 1-894, looked up, variant R3S, FLAG tag, FLAG-BCL11B p.R3S, patient-derived mutant protein expressed in transfected HEK293T cells) B-cell lymphoma/leukemia 11B: MSSRKQGNPQHLSQRELITPEADHVEAAILEEDEGLEIEEPSGLGLMVGGPDPDLLTCGQCQMNFPLGDILVFIEHKRKQCGGSLGACYDKALDKDSPPPSSRSELRKVSEPVEIGIQVTPDEDDHLLSPTKGICPKQENIAGPCRPAQLPAVAPIAASSHPHSSVITSPLRALGALPPCLPLPCCSARPVSGDGTQGEGQTEAPFGCQCQLSGKDEPSSYICTTCKQPFNSAWFLLQHAQNTHGFRIYLEPGPASSSLTPRLTIPPPLGPEAVAQSPLMNFLGDSNPFNLLRMTGPILRDHPGFGEGRLPGTPPLFSPPPRHHLDPHRLSAEEMGLVAQHPSAFDRVMRLNPMAIDSPAMDFSRRLRELAGNSSTPPPVSPGRGNPMHRLLNPFQPSPKSPFLSTPPLPPMPPGGTPPPQPPAKSKSCEFCGKTFKFQSNLIVHRRSHTGEKPYKCQLCDHACSQASKLKRHMKTHMHKAGSLAGRSDDGLSAASSPEPGTSELAGEGLKAADGDFRHHESDPSLGHEPEEEDEEEEEEEEELLLENESRPESSFSMDSELSRNRENGGGGVPGVPGAGGGAAKALADEKALVLGKVMENVGLGALPQYGELLADKQKRGAFLKRAAGGGDAGDDDDAGGCGDAGAGGAVNGRGGGFAPGTEPFPGLFPRKPAPLPSPGLNSAAKRIKVEKDLELPPAALIPSENVYSQWLVGYAASRHFMKDPFLGFTDARQSPFATSSEHSSENGSLRFSTPPGDLLDGGLSGRSGTASGGSTPHLGGPGPGRPSSKEGRRSDTCEYCGKVFKNCSNLTVHRRSHTGERPYKCELCNYACAQSSKLTRHMKTHGQIGKEVYRCDICQMPFSVYSTLEKHMKKWHGEHLLTNDVKIEQAERS | does not interact with the NuRD or PRC2 complexes | well expressed and localized in the nucleus in a manner that was indistinguishable from wild-type protein | did not alter interaction of the protein with the class III histone deacetylase SIRT1 | does not interact with the NuRD or PRC2 complexes |

— paper PMC6644156, “A de novo substitution in BCL11B leads to loss of interaction with transcriptional complexes and craniosynostosis” (Human Molecular Genetics, 2019)
